Experimental data reported in article PMC12004451, “Characterization of the Two-Domain Peptide Binding Mechanism of the Human CGRP Receptor for CGRP and the Ultrahigh Affinity ssCGRP Variant” (Biochemistry, 2025).
Values joined by “and” are separate entries in the source; they are usually repeats but may differ in a detail not shown here. Identical values can stand only once. Like-named read-outs stand apart in the source and are kept apart here. Ends that are not written are not given here. Peptide text beside a SMILES is read from it. * marks the point of attachment. 5TAMRA = CN(C)c1ccc2c(c1)Oc1cc(N(C)C)ccc1C21OC(=O)c2cc(C(=O)*)ccc21

Key:
[1] = target: T1, CGRP receptor (Nluc-CLR:RAMP1) (Homo sapiens, UniProt O60894+Q16602); experiment: nanoBRET dissociation kinetics of TAMRA probes; type: binding
T1 construct: N-terminally Nanoluciferase (NLuc)-tagged CLR (pcDNA3.1(+)sec/NanoLuc-GSGIS-CLR.23-461); Wild-type CLR and RAMP expression plasmids were obtained from cDNA.org; sec (vector secretion signal before NanoLuc) (N); expressed in transfected cells; host or cells: COS-7 cells, membrane preparation
Method: After 2 days, the cells were washed with PBS and harvested with ice-cold PBS + 5 mM EDTA. The cells were pelleted in a centrifuge at 1000g for 5 min at 4 °C and resuspended in a hypotonic buffer (25 mM NaHEPES pH 7.5, 2 mM MgCl2, 1 mM EDTA, and 1× EDTA-free PIERCE protease inhibitor tablet). After resuspension, cells were homogenized with an Ultra Turrax for 30 s at 10,000 rpm followed by a 10 min incubation. Cell debris was pelleted at 800g for 10 min and the supernatant was transferred to ultracentrifuge tubes and centrifuged at 100,000g for 1 h. Membranes were resuspended in a wash buffer (25 mM NaHEPES pH 7.5, 250 mM NaCl, 2 mM MgCl2, 1 mM EDTA, and 1× protease inhibitor tablet). The homogenization and ultracentrifugation were repeated once more and the membranes were resuspended in storage buffer (25 mM NaHEPES pH 7.5, 25 mM NaCl, 2 mM MgCl2, 10% v/v glycerol, and 1× protease inhibitor tablet). The resuspended membranes were homogenized, aliquoted, and flash frozen in liquid nitrogen for storage at -80 °C. Total protein was quantitated using the DC protein assay (BioRad) per the manufacturer's instructions. The concentration of NLuc-CLR was determined by comparing the membrane prep luminescence to a standard curve using purified NLuc enzyme (Promega; […]). The total protein concentration was 0.91 mg/mL and the NLuc-CLR was 7.35 nM. For dissociation kinetics, the membranes and probe in binding buffer were incubated in a 96-well white plate (Corning; Costar 3912) followed by furimazine addition at 1× for 5 min (75 μL volume). […] The buffer control defined the stability of the signal. […] Unlabeled […](8-37) (4×; 10 μM) or binding buffer was loaded into the injectors and injected into the plate, which was read for 4 h. […](8-37) (4×; 1 μM) or binding buffer was loaded into the injectors and injected into the plate, which was read for 1 h. The BRET ratio 610/460 was plotted against time and the membrane only control was subtracted. The dissociation data were normalized to their corresponding buffer control injections as 100% (100*value/baseline) to account for signal decay with time. The normalized dissociation curves were fit to a one-phase (dashed line) (https://www.graphpad.com/guides/prism/latest/curve-fitting/reg_exponential_[…]) or a two-phase (solid line) (https://www.graphpad.com/guides/prism/latest/curve-fitting/reg_exponential_[…]) exponential decay models in GraphPad Prism to determine the koff.

[2] = target: T1, CGRP receptor (Nluc-CLR:RAMP1); experiment: nanoBRET association kinetics of TAMRA probes; type: binding; conditions: association kinetics, 25 °C, mean ± SEM, n=3
Method: After 2 days, the cells were washed with PBS and harvested with ice-cold PBS + 5 mM EDTA. The cells were pelleted in a centrifuge at 1000g for 5 min at 4 °C and resuspended in a hypotonic buffer (25 mM NaHEPES pH 7.5, 2 mM MgCl2, 1 mM EDTA, and 1× EDTA-free PIERCE protease inhibitor tablet). After resuspension, cells were homogenized with an Ultra Turrax for 30 s at 10,000 rpm followed by a 10 min incubation. Cell debris was pelleted at 800g for 10 min and the supernatant was transferred to ultracentrifuge tubes and centrifuged at 100,000g for 1 h. Membranes were resuspended in a wash buffer (25 mM NaHEPES pH 7.5, 250 mM NaCl, 2 mM MgCl2, 1 mM EDTA, and 1× protease inhibitor tablet). The homogenization and ultracentrifugation were repeated once more and the membranes were resuspended in storage buffer (25 mM NaHEPES pH 7.5, 25 mM NaCl, 2 mM MgCl2, 10% v/v glycerol, and 1× protease inhibitor tablet). The resuspended membranes were homogenized, aliquoted, and flash frozen in liquid nitrogen for storage at -80 °C. Total protein was quantitated using the DC protein assay (BioRad) per the manufacturer's instructions. The concentration of NLuc-CLR was determined by comparing the membrane prep luminescence to a standard curve using purified NLuc enzyme (Promega; […]). […] Costar 3912). […] The observed association rates (kobs) were plotted against probe concentration and the data was analyzed by linear regression. The kon and koff were obtained as the slope and y-intercept, respectively.

[3] = target: NLuc-CLR:RAMP1 membranes with 30 μM purified sumo-miniGs (G protein-coupled state of the CGRPR) (UniProt Q16602); experiment: FRET or BRET; nanoBRET equilibrium saturation binding; as the uncoupled format but with 30 μM purified sumo-miniGs (G protein coupled state); 4 h; room temperature
[4] = target: NLuc-CLR:RAMP1 (human CGRP receptor, CGRPR), membrane preparation (human) (UniProt Q16602); experiment: FRET or BRET; nanoBRET association kinetics; membranes injected into 2-fold serial dilutions of TAMRA probe; 25 °C; one-phase association fits, kobs against probe concentration by linear regression (kon slope, koff intercept); Kd calculated as koff/kon
[5] = target: NLuc-CLR:RAMP1 (human CGRP receptor, CGRPR), membrane preparation (human) (UniProt Q16602)
[6] = target: NLuc-CLR:RAMP1 (human CGRP receptor, CGRPR), membrane preparation (human) (UniProt Q16602); experiment: FRET or BRET; nanoBRET competition association kinetics, simultaneous addition of 20 nM CGRP(27-37)*-TAMRA and unlabeled (27-37) peptide; 25 °C; Motulsky-Mahan equation with a signal decay term; Kd calculated as koff/kon
[7] = target: T1, CGRP receptor (Nluc-CLR:RAMP1); experiment: nanoBRET equilibrium competition binding, Nluc-CLR:RAMP1 membranes; conditions: 8 h, room temperature, Cheng-Prusoff, mean ± SEM, n=3
Method: After 2 days, the cells were washed with PBS and harvested with ice-cold PBS + 5 mM EDTA. The cells were pelleted in a centrifuge at 1000g for 5 min at 4 °C and resuspended in a hypotonic buffer (25 mM NaHEPES pH 7.5, 2 mM MgCl2, 1 mM EDTA, and 1× EDTA-free PIERCE protease inhibitor tablet). After resuspension, cells were homogenized with an Ultra Turrax for 30 s at 10,000 rpm followed by a 10 min incubation. Cell debris was pelleted at 800g for 10 min and the supernatant was transferred to ultracentrifuge tubes and centrifuged at 100,000g for 1 h. Membranes were resuspended in a wash buffer (25 mM NaHEPES pH 7.5, 250 mM NaCl, 2 mM MgCl2, 1 mM EDTA, and 1× protease inhibitor tablet). The homogenization and ultracentrifugation were repeated once more and the membranes were resuspended in storage buffer (25 mM NaHEPES pH 7.5, 25 mM NaCl, 2 mM MgCl2, 10% v/v glycerol, and 1× protease inhibitor tablet). The resuspended membranes were homogenized, aliquoted, and flash frozen in liquid nitrogen for storage at -80 °C. Total protein was quantitated using the DC protein assay (BioRad) per the manufacturer's instructions. The concentration of NLuc-CLR was determined by comparing the membrane prep luminescence to a standard curve using purified NLuc enzyme (Promega; […]). […] The Cheng-Prusoff correction[30] was used to calculate the Ki from the IC50.

[8] = target: NLuc-CLR:RAMP1 (human CGRP receptor, CGRPR), membrane preparation (human) (UniProt Q16602); experiment: FRET or BRET; nanoBRET equilibrium saturation binding; 3-fold serial dilutions of TAMRA probe with NLuc-CLR:RAMP1 membranes (0.01 mg/mL total protein, 0.08 nM NLuc-CLR) and 50 μM GTPγS (uncoupled state); 2 h or 4 h; room temperature; 25 mM NaHEPES pH 7.4, […] NaCl, 5 mM KCl, 1 mM KH2PO4, 3 mM MgSO4, 2 mM CaCl2, 1 mg/mL FAF-BSA, 50 μg/mL saponin; one-site specific binding fit
[9] = target: NLuc-CLR:RAMP1 (human CGRP receptor, CGRPR), membrane preparation (human) (UniProt Q16602); experiment: FRET or BRET; nanoBRET dissociation kinetics; membranes preincubated with probe (1 nM ssCGRP(8-37)-TAMRA or 10 nM AM2/IMD(8-47)-TAMRA), dissociation started by injection of excess unlabeled ssCGRP(8-37); 25 °C; normalised to buffer control; two-phase exponential decay
[10] = target: NLuc-CLR:RAMP1 (human CGRP receptor, CGRPR) in COS-7 membranes (human) (UniProt Q16602); experiment: FRET or BRET; nanoBRET equilibrium saturation binding of TAMRA probe to NLuc-CLR:RAMP1 COS-7 membranes (0.08 nM NLuc-CLR), G protein uncoupled state with 50 uM GTPgammaS, room temperature, 25 mM NaHEPES pH 7.4, […] NaCl; one-site specific binding fit
[11] = target: NLuc-CLR:RAMP1 (human CGRP receptor, CGRPR) in COS-7 membranes (human) (UniProt Q16602); experiment: FRET or BRET; nanoBRET association kinetics of TAMRA probe on NLuc-CLR:RAMP1 COS-7 membranes, 25 C; kobs against probe concentration, linear regression; Kd calculated as koff/kon
[12] = 1/koff slow, two-phase dissociation, read-out: Residence time slow

## CC(C)C[C@H](NC(=O)CNC(=O)[C@H](C)NC(=O)[C@H](CC(C)C)NC(=O)[C@H](CCCNC(=N)N)NC(=O)[C@H](Cc1c[nH]cn1)NC(=O)[C@@H](NC(=O)[C@@H](N)C(C)C)[C@@H](C)O)C(=O)N[C@@H](CC(C)C)C(=O)N[C@@H](CO)C(=O)N[C@@H](CCCNC(=N)N)C(=O)N[C@@H](CO)C(=O)NCC(=O)NCC(=O)N[C@H](C(=O)N[C@H](C(=O)N[C@@H](CCCCN)C(=O)N[C@@H](CC(N)=O)C(=O)N[C@@H](CCCCNC(=O)c1ccc2c(c1)C(=O)OC21c2ccc(N(C)C)cc2Oc2cc(N(C)C)ccc21)C(=O)N[C@@H](Cc1ccccc1)C(=O)N[C@H](C(=O)N1CCC[C@H]1C(=O)N[C@H](C(=O)N[C@@H](CC(=O)O)C(=O)N[C@H](C(=O)NCC(=O)N1CCC[C@H]1C(=O)N[C@@H](Cc1c[nH]c2ccccc12)C(=O)N[C@@H](CO)C(=O)N[C@@H](Cc1ccccc1)C(N)=O)C(C)C)[C@@H](C)O)C(C)C)C(C)C)C(C)C [ssCGRP(8-37)-TAMRA, αCGRP(8-37) N26K-TAMRA/N31D/S34P/K35W/A36S] (H-VTHRLAGLLSRSGGVVKNK(5TAMRA)FVPTDVGPWSF-NH2; N-terminus assumed)
[1]; 1/koff fast, two-phase dissociation, read-out: Residence time fast
  residence time: 19.1 ± 1.9 min
[1]; [12]
  residence time: 75.7 ± 3.49 min
[1]; ln 2/koff fast, two-phase dissociation
  t1/2 fast: 13.25 ± 1.32 min and 13 min
[1]; ln 2/koff slow, two-phase dissociation
  t1/2 slow: 52.45 ± 2.42 min and 52 min
[1]; share of the fast component, two-phase dissociation
  Percent fast: 25.6 ± 3.5% and 25.6%
[1]; two-phase exponential decay, same conditions as koff fast, mean ± SEM, n=3
  koff: 0.000222 s⁻¹
[2]; kobs vs probe concentration, slope of linear regression, fit of first 10 min (full 1 h 15 min for ssCGRP(8-37)-TAMRA)
  kon: 3.62e+06 M⁻¹ s⁻¹
[2]; y-intercept of kobs vs probe concentration
  koff: 0.0003 s⁻¹

## AM2/IMD(8-47)-TAMRA (peptide)
[3]
  Kd: 6.5 nM
[4]
  Kd: 8.1 nM
  half-life: 1.6 min

## CGRP(27-37) (peptide)
[5]
  apparent melting temperature of LMNG/CHS-solubilised MBP-CLR-EGFP:MBP-RAMP1 heterodimer, native PAGE thermostability assay (ligand-free 38.2 °C): 39.8 °C
[6]
  half-life: 0.06 min

## VTHRLAGLLSRSGGVVKNNFVPTDVGPWSF-NH2 [ssCGRP(8-37)]
[1]; [12]
  residence time: 76 min
[7]; G protein coupled state (30 μM sumo-miniGs), 3 nM AM2/IMD(8-47)-TAMRA probe, read-out: Ki + mGs
  Ki: 0.6 ± 0.05 nM
[7]; G protein uncoupled state (50 μM GTPγS), 30 nM AM2/IMD(8-47)-TAMRA probe, read-out: Ki + GTPγS
  Ki: 0.43 ± 0.02 nM
other
  affinity (summary, both receptor states): 0.5 nM

## αCGRP(8-37) (peptide)
[5]
  apparent melting temperature of LMNG/CHS-solubilised MBP-CLR-EGFP:MBP-RAMP1 heterodimer, native PAGE thermostability assay (ligand-free 38.2 °C): 43.6 °C

## αCGRP(8-37) N26K-TAMRA/N31D/S34P/K35W/A36S (peptide)
[8]
  Kd: 0.4 nM
[4]
  Kd: 0.085 nM
  half-life: 38 min
  koff: 0.0003 s⁻¹
  kon: 3.62e+06 M⁻¹ s⁻¹
[9]
  half-life of the fast component: 13 min
  half-life of the slow component: 52 min
  koff fast: 0.053 min^–1
  koff slow: 0.013 min^–1
  residence time (1/koff slow): 76 min
  residence time of the fast component: 19 min

## αCGRP(27-37) N31D/S34P/K35-TAMRA/A36S/F37Y (peptide)
[10]
  Kd: 28.7 nM
[8]
  Kd: 28.7 nM
[11]
  Kd: 22.5 nM
[4]
  Kd: 22.5 nM
  half-life: 0.183 min
  koff: 0.0635 s⁻¹
  kon: 2.75e+06 M⁻¹ s⁻¹
